Assay [1] concerns the target collagen receptor on human platelets (human). Put plainly: adhesion of platelets to a plate coated with collagen type I with 10 µl Superose-pool (0.5 mg protein/ml), 2 mM Mg2+.
Assay [2] shares this target. Put plainly: adhesion of platelets to a plate coated with collagen type I with 50 µl Superose-pool (0.5 mg protein/ml), 2 mM Mg2+.
In assay [3] the target is collagen receptor on MTLn3 cells (rat mammary tumor cells) (rat). Put plainly: adhesion of 51Cr-labelled MTLn3 cells to wells coated with collagen type III with 2 µl Superose-pool (0.5 mg protein/ml).
Assay [4] has the same target. Put plainly: adhesion of 51Cr-labelled MTLn3 cells to wells coated with collagen type III with 5 µl Superose-pool (0.5 mg protein/ml).
Assay [5] shares this target. Put plainly: adhesion of 51Cr-labelled MTLn3 cells to wells coated with collagen type III with 10 µl Superose-pool (0.5 mg protein/ml).

Take “collagen-induced platelet aggregation inhibitor from saliva of Triatoma pallidipennis (as saliva or as partially purified "Superose"-pool)”: the figures for the adherent platelets per mm² (adherent platelets per mm²) in assay [1] and in assay [2] were 12000 and 6500, respectively. The cell attachment (cpm) is 2070 cpm in assay [3], 1610 cpm in assay [4] and 1080 cpm in assay [5].

Values taken from patent EP0530937A1.
